# B1: LRS peptide N_(210-246):G214C (peptide)
# peptide: MAGNCGDAALALLLLDRLNQLESKMSGKGQQQQGQTV
# notes: also called N_(LRS, 210-246):G214C; G214C cysteine mutant LRS peptide
# Molecular target: the molecule itself
# Test: dynamic light scattering
protein,measurement,value
B1,binding result,binds
